Results as given in the supplement of paper PMC10065799, “High-throughput profiling of sequence recognition by tyrosine kinases and SH2 domains using bacterial peptide display” (eLife, 2023).

How the values were obtained:
[1] = target: EPHB2 (UniProt P29323); assay: phosphorylation enrichment, bacterial display (enrichment ratio); higher = better substrate or ligand; peptides without Tyr show the background
[2] = target: FGFR3 (UniProt P22607); assay: as above
[3] = tested on: AncSZ; assay: as above
[4] = target: EPHB1 (UniProt P54762); assay: as above
EPHB1, sequence (P54762 whole entry, looked up): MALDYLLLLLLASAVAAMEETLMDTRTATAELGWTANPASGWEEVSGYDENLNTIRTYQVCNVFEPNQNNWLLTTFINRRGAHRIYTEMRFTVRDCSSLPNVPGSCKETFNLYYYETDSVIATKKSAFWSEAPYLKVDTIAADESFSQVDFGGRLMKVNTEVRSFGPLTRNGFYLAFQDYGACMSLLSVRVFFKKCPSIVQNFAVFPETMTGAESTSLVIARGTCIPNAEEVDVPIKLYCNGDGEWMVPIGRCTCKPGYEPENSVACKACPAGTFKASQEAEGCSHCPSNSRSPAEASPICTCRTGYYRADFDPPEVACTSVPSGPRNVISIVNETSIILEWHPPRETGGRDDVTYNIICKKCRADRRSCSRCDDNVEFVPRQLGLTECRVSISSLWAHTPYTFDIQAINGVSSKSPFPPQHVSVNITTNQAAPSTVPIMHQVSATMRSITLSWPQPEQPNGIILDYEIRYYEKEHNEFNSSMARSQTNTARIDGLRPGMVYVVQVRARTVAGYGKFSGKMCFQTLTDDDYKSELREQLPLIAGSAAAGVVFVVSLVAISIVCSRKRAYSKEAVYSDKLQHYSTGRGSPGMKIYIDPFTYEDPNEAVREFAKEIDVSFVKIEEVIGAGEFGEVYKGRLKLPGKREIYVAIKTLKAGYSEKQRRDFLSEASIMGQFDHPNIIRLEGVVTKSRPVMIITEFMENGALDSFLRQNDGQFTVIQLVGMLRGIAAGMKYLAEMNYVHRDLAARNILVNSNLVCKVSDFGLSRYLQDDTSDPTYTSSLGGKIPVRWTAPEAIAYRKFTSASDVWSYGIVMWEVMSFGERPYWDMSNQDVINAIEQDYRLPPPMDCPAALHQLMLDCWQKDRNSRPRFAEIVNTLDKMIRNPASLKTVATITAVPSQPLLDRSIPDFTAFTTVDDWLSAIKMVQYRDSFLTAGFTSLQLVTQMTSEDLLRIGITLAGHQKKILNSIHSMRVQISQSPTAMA

[5] = target: FGFR1 (UniProt P11362); assay: as above
[6] = target: Fes (UniProt P07332); assay: as above
[7] = target: MERTK (UniProt Q12866); assay: as above
MERTK, sequence (Q12866 whole entry, looked up): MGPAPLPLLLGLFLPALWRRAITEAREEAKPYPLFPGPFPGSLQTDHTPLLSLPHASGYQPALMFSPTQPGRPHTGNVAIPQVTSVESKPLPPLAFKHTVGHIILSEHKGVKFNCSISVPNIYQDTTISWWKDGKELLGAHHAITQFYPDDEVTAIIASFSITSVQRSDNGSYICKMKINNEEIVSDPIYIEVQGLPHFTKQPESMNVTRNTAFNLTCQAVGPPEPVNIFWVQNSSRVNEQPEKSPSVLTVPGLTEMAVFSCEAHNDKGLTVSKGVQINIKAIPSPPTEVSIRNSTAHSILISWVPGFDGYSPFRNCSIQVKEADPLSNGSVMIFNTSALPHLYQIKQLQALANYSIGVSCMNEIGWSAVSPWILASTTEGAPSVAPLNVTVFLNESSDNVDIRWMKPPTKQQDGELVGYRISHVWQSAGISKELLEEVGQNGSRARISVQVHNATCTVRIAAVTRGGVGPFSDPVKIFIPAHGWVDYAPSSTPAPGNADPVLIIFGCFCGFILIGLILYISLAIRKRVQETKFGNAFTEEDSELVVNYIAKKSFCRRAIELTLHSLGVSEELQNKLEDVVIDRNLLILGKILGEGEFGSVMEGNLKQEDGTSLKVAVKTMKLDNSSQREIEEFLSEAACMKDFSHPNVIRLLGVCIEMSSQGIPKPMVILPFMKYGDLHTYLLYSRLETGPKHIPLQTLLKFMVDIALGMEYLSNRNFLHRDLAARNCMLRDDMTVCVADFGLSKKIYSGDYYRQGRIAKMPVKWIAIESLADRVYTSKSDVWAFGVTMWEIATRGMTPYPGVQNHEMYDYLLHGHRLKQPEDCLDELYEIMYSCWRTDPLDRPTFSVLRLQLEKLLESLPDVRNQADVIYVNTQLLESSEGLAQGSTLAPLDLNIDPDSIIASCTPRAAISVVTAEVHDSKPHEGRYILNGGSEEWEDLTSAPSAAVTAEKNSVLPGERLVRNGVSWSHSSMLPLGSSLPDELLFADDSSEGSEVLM

[8] = target: Hck (UniProt P08631); assay: as above
Hck, sequence (P08631 whole entry, looked up): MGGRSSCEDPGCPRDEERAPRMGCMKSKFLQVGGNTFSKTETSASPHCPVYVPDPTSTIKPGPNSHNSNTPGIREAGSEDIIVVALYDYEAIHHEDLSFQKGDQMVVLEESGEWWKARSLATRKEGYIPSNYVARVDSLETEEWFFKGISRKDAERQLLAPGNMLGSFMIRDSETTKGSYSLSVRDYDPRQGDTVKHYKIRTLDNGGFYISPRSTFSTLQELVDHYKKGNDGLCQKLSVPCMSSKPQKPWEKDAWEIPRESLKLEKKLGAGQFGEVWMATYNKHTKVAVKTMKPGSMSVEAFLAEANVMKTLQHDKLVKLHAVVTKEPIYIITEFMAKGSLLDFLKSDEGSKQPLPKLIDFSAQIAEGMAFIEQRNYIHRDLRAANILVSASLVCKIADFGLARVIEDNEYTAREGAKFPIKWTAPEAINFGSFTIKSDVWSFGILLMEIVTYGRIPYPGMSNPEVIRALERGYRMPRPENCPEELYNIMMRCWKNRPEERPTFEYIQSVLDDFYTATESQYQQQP

[9] = tested on: Fer (mouse); assay: as above
[10] = tested on: c-Src; assay: as above
[11] = tested on: c-Abl (mouse); assay: as above
[12] = target: Jak2 (UniProt O60674); assay: as above
Jak2, sequence (O60674 whole entry, looked up): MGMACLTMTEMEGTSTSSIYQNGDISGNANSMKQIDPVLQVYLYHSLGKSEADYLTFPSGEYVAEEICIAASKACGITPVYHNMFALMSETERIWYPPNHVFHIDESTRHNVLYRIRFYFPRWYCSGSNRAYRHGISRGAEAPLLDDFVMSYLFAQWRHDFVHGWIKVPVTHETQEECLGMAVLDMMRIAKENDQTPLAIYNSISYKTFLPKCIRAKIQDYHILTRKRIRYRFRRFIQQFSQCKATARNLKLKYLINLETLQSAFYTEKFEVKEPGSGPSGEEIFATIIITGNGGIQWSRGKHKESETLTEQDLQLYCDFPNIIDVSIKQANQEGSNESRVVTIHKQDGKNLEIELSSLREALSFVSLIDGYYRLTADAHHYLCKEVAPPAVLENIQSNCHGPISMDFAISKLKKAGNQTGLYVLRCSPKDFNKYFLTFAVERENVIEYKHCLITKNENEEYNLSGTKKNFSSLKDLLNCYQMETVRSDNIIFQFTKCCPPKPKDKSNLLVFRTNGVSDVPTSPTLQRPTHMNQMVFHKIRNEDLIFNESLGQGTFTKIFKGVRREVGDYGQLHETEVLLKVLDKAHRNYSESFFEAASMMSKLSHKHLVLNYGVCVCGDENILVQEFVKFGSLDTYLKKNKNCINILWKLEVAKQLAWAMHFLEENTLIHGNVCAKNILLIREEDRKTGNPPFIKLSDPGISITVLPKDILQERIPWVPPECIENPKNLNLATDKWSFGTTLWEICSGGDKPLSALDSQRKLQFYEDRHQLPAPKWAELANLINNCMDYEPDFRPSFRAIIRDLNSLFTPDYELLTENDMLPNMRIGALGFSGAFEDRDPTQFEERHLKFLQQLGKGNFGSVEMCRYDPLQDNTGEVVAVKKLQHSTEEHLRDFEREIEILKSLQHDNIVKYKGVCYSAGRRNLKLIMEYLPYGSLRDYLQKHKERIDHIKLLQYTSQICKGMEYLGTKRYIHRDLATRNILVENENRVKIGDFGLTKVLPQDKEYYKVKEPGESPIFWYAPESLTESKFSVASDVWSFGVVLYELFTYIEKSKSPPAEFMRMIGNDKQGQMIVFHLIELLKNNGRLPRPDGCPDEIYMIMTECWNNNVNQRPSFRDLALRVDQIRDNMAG

[13] = target: Fyn (UniProt P06241); assay: as above
Fyn, sequence (P06241 whole entry, looked up): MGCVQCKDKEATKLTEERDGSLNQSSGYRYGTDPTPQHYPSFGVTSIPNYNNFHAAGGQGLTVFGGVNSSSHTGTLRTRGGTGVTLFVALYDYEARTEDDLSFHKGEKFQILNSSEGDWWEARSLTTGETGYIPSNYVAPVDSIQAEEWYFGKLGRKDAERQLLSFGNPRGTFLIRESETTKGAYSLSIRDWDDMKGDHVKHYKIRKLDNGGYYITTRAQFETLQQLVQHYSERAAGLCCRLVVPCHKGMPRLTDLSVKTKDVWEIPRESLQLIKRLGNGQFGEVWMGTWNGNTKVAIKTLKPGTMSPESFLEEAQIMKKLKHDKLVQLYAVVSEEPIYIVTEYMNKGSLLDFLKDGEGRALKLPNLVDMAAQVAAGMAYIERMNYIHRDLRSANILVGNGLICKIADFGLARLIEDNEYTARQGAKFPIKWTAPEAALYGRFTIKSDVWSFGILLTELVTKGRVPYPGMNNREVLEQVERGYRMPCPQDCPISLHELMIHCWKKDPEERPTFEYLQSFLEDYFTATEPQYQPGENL

[14] = target: Grb2 SH2 (UniProt P62993); assay: SH2 binding enrichment of the phosphorylated peptide, bacterial display (enrichment ratio); higher = better substrate or ligand; peptides without Tyr show the background
[15] = target: c-Src SH2; assay: as above
[16] = target: SHP2-C SH2; assay: as above
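Throughout, for SH2 binding enrichment of the phosphorylated peptide, bacterial display: peptide library displayed on the E. coli surface as eCPX fusions, selected cells deep-sequenced, score is each peptide's frequency after selection divided by its frequency in the input.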
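Throughout, for phosphorylation enrichment, bacterial display: 11-residue human phosphosite peptides and single-mutation variants displayed on the E. coli surface, counted by deep sequencing, each peptide's frequency after selection divided by its frequency in the unselected input library; frequency after pTyr selection over input frequency; kinase dosed for 20-30% of maximal phosphorylation in three min.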

FGFR3, sequence (P22607 whole entry, looked up): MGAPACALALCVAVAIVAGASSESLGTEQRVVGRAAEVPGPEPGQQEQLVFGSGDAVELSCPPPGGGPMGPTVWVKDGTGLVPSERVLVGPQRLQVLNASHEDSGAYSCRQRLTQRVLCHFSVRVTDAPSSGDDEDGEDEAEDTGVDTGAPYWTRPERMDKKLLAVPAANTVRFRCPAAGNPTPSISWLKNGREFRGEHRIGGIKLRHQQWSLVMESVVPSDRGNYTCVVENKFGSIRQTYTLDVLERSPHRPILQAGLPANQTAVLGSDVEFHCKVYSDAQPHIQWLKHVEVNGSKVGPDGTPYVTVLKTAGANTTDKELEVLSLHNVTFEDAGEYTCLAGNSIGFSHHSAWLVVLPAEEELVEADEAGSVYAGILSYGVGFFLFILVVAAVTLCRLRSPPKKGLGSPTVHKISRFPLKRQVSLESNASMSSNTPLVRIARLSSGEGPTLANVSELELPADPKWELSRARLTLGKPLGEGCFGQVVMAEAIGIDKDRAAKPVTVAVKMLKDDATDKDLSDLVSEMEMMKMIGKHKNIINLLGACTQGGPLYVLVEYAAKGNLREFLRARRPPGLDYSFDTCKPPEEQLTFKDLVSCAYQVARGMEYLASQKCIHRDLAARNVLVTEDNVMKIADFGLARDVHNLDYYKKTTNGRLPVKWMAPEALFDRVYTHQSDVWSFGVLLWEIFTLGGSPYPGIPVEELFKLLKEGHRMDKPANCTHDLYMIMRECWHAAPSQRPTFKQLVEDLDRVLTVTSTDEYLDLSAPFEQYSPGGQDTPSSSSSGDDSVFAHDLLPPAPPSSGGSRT

Sequence | SH2 binding enrichment [14] | SH2 binding enrichment [15] | SH2 binding enrichment [16] | phosphorylation enrichment [1] | phosphorylation enrichment [2] | phosphorylation enrichment [3] | phosphorylation enrichment [4] | phosphorylation enrichment [5] | phosphorylation enrichment [6] | phosphorylation enrichment [7] | phosphorylation enrichment [8] | phosphorylation enrichment [9] | phosphorylation enrichment [10] | phosphorylation enrichment [11] | phosphorylation enrichment [12] | phosphorylation enrichment [13]
ATHSGYRLNDY [CLDN14_Y233] | 0.709 | 0.49 | 0.623 | 0.491 | 0.491 | 0.568 | 0.518 | 0.503 | 0.739 | 0.393 | 0.397 | 0.395 | 0.493 | 0.556 | 0.706 | 0.389
YSMGCYEIYLG [HMGCL_Y198_S201Y] | 0.713 | 0.627 | 0.641 | 8.68 | 2.19 | 4.43 | 4.78 | 2.06 | 2.02 | 4.69 | 4.95 | 5.57 | 5.79 | 1.37 | 1.41 | 6.34
NFFEFYVDDPP [GCHFR_Y48_YF] | 0.978 | 0.533 | 0.594 | 0.621 | 0.925 | 1.44 | 0.704 | 0.741 | 1.28 | 0.531 | 0.499 | 0.557 | 0.575 | 0.836 | 1.12 | 0.569
VIERSYTSADG [DHCR7_Y382_C380R] | 0.852 | 1.39 | 0.564 | 0.478 | 0.466 | 0.571 | 0.388 | 0.414 | 0.692 | 0.395 | 0.392 | 0.454 | 0.419 | 0.565 | 0.578 | 0.496
GAMGHYVLAER [HFE_Y342] | 1.18 | 2.46 | 0.91 | 0.403 | 0.446 | 0.643 | 0.387 | 0.38 | 0.659 | 0.452 | 0.44 | 0.453 | 0.437 | 0.505 | 0.511 | 0.41
SVQVEYMKTIL [GLYATL2_Y127_D126E] | 0.712 | 0.72 | 0.777 | 0.476 | 0.578 | 0.643 | 0.41 | 0.437 | 0.893 | 0.429 | 0.469 | 0.425 | 0.376 | 0.484 | 0.612 | 0.413
VHNLDYYKMTT [FGFR3_Y647_K650M] | 0.731 | 1.07 | 0.643 | 0.895 | 8.96 | 1.33 | 1.17 | 12.1 | 0.608 | 0.492 | 0.547 | 0.522 | 0.496 | 0.433 | 5.87 | 0.439

Further lines, with some results ahead:

SH2 binding enrichment [14] | SH2 binding enrichment [15] | SH2 binding enrichment [16] | Sequence | phosphorylation enrichment [1] | phosphorylation enrichment [2] | phosphorylation enrichment [3] | phosphorylation enrichment [4] | phosphorylation enrichment [5] | phosphorylation enrichment [6] | phosphorylation enrichment [7] | phosphorylation enrichment [8] | phosphorylation enrichment [9] | phosphorylation enrichment [10] | phosphorylation enrichment [11] | phosphorylation enrichment [12] | phosphorylation enrichment [13]
1.01 | 0.598 | 0.767 | DASENYFVMDS [TMEM240_Y77_T80M] | 4.43 | 7.01 | 1.91 | 6.62 | 8.76 | 1.1 | 1.92 | 0.457 | 0.732 | 0.569 | 0.677 | 0.952 | 0.392
2.16 | 0.829 | 2.37 | LLVVVYKYRCY [PSEN1_Y154_L153V] | 1.22 | 1.22 | 2 | 2.05 | 1.08 | 3.48 | 0.474 | 1.08 | 1.25 | 0.662 | 1.65 | 0.994 | 0.703
0.892 | 0.65 | 0.64 | TSESSYYKSLN [NGEF_Y288_A286S] | 0.668 | 0.651 | 0.76 | 0.55 | 0.64 | 0.817 | 0.564 | 0.496 | 0.482 | 0.518 | 0.499 | 0.771 | 0.469
1 | 0.714 | 0.788 | KLIMEYLPFGS [JAK2_Y931_YF] | 0.571 | 0.595 | 0.868 | 0.49 | 0.468 | 1.09 | 0.372 | 0.424 | 0.456 | 0.558 | 0.734 | 0.965 | 0.401
1.08 | 0.685 | 1.07 | IFCIQYNIRAF [MYH4_Y820] | 0.678 | 1.08 | 1.57 | 0.821 | 0.525 | 1.76 | 0.436 | 0.608 | 0.596 | 0.599 | 1.35 | 1.57 | 0.445
0.678 | 0.513 | 0.683 | DGQSVYKLTDF [TBK1_Y153] | 0.37 | 0.474 | 0.725 | 0.426 | 0.434 | 0.775 | 0.471 | 0.751 | 0.775 | 3.06 | 0.444 | 0.765 | 2.52
0.702 | 0.392 | 0.642 | RTEAQYRFIYM [PTPN11_Y511_Q506R] | 0.9 | 1.1 | 1.2 | 0.724 | 0.683 | 1.72 | 0.691 | 0.635 | 0.794 | 0.754 | 1.44 | 1.5 | 0.423
